Experiments:
primary mouse RGC [1] = test: Axon and neurite formation in primary mouse RGC; assay type: cell-based; details: for average number of branch points of neurite per RGC / average axon length per RGC / average number of neurites per RGC / percentage of RGC with axons longer than 3× cell body length: primary RGC; for average number of branch points of neurite per RGC: compared to control; for average axon length per RGC / average number of neurites per RGC / percentage of RGC with axons longer than 3× cell body length: compared to the GFP control
Description: FIG. 6 is a series of photomicrographs showing correlative fluorescence and electron microscopy showing extra long axons (>1400 μm) from some of the eVEGF-38 overexpressing primary RGC. Green arrows, eVEGF-38 overexpressing cells; blue arrows, untransduced primary mouse RGC.
FIGS. 7A and 7B are a series of bar graphs and dot plots showing that VEGFR2 signaling is required for the formation of long axons by primary RGC overexpressing eVEGF-38, eVEGF-53, and VEGF189. […] Recombinant VEGF121 protein was added to a final concentration of 2.5 nM. […] Labels: 38, eVEGF-38; 53, eVEGF-53; 189, VEGF189; UT, untreated. Data=mean±SD, n=15 fields from 3 independent wells per group, *P<0.05, **P<0.01, ***P<0.001, one-way ANOVA.
(§1) eVEGF-38 and eVEGF-53 localize to the cell membrane and comprise myc-tags. VEGF189 was constructed with a myc-tag. The constructs were packaged into adeno-associated virus serotype 2 (AAV2) for efficient transduction and expression in human microvascular endothelial cells (hREC) and RGC. Transgenes expression was measured by western blot, qPCR and immunostaining. In hREC, VEGFR2, VCAM-1, E-selectin and tissue factor expression were measured by immunostaining or qPCR. VEGFR2 signaling, axon length, and synapse formation in RGC were measured by immunostaining. RGC survival was measured by TUNEL staining and intracellular [Ca2+] was measured using fura2/AM calcium imaging.

primary mouse RGC [2] = test: H2O2-induced cell death of primary mouse RGC (TUNEL staining); assay type: cell-based; details: P<0.05
Description: as §1, with “Cell death was analyzed by TUNEL staining” for “eVEGF-38”, “transgene expression by immunostaining. Percentage of viable RGC was determined by: (TUNEL-negative RGC with transgenes expression)/(total” for “eVEGF-53 localize to the”, “number by DAPI staining). […]” for “membrane and comprise myc-tags. VEGF189 was constructed with a myc-tag.”

VEGFR2 = biological target: T1, VEGFR2 (Homo sapiens, UniProt P35968); test: VEGFR2 activation (p-VEGFR2 western blot) in transfected hREC; assay type: cell-based; details: hREC transfected with expression construct; lysate at 24 and 48 hours post transfection; vs GFP control
T1 construct: Human retinal endothelial cells (hREC) that express VEGFR2; endogenous in cells; host or cells: human retinal endothelial cells (hREC)
Description: Human retinal endothelial cells (hREC) that express VEGFR2 were transfected with eVEGF-38 or eVEGF-53, or VEGF189, or control GFP (ctr) expression construct and total cell lysate was collected at 24 and 48 hours post transfection. Activation of VEGFR2 was determined by the levels of VEGFR2 phosphorylation (p-VEGFR2). Data=mean±SD, **P<0.01 by unpaired t-test, n=3 independent western blot assays.
as §1

RGC = test: Intracellular [Ca2+] in RGC by fura2/AM calcium imaging; assay type: cell-based, mouse; details: upon carbachol and NMDA stimulation; compared to control
Description: as §1

primary mouse RGC [3] = test: Gene expression analysis of primary mouse RGC; assay type: cell-based; details: overexpressing primary mouse RGC; vs GFP control
Description: FIG. 9 is a series of bar graphs showing that overexpression of eVEGF-38 in primary RGC suppresses genes that are associated with cell death and suppression of axon formation, but induces genes that are associated with axon growth and neuronal function. Label: 38, eVEGF-38; Ctr, GFP control. Data=mean±SD, n=3 independent wells of primary RGC, *P<0.05, **P<0.01, ***P<0.001 by unpaired t-test.
Furthermore, eVEGF-38 and eVEGF-53 chimeric polypeptides and VEGF189 expression enhanced axons and neurites formation of primary mouse RGCs (FIGS. 5A-C, FIG. 6, and FIGS. 7A-B), supported synaptogenesis and likely neuronal function (FIG. 8), which are consistent with the role of VEGF in promoting neurogenesis and neuronal function in vitro and in vivo. […] Together, the data support overexpression of eVEGF-38, eVEGF-53 and the natural VEGF189 isoform in RGC promotes cell-autonomous RGC survival, axon growth and regeneration, and neuronal function, and is useful and a therapeutic agent for treatment of glaucoma. The chimeric polypeptides can be used therapeutically via a gene therapy approach (AAV) for eVEGF-38, eVEGF-53 and VEGF189. Activity is tested in animal models of glaucoma and optic nerve injury/regeneration.

primary RGC = test: Synapse formation / synaptophysin expression in primary RGC; assay type: cell-based, mouse; details: for synaptic vesicle marker synaptophysin in axons and neurites: primary RGC overexpressing the transgene
Description: as §1

primary mouse RGC [4] = test: Survival of primary mouse RGC in culture; assay type: cell-based; details: control 22% survival, P<0.001
Description: FIG. 3A is a bar graph showing the results from experiments using primary mouse RGC isolated from P3 pups were transduced with different AAVs to overexpress eVEGF-38, eVEGF-53, VEGF189, or the control GFP on the day of isolation (day 0), or treated with exogenous recombinant VEGF121 protein on day 2. The number viable RGC was determined by immunostaining for beta III tubulin while total cell number per field was determined by DAPI staining on day 3 of culture.
FIG. 3B is a bar graph showing that the majority of the viable RGC were expressing the eVEGF-38, eVEGF-53, or VEGF189, whereas the GFP-expressing RGC were not protected in culture. Data=mean±SD, ***P<0.001 by unpaired t-test, n=15 different fields total (5 fields/well) from three independent wells of primary RGC.
as §1

[5] = test system: human microvascular endothelial cells (hREC); test: Pro-inflammatory markers (VCAM-1, E-selectin, tissue factor) in hREC by immunostaining or qPCR; assay type: cell-based; details: compared with GFP/AAV2 control, p<0.05
Description: as §1

T1 sequence (P35968 20-1356): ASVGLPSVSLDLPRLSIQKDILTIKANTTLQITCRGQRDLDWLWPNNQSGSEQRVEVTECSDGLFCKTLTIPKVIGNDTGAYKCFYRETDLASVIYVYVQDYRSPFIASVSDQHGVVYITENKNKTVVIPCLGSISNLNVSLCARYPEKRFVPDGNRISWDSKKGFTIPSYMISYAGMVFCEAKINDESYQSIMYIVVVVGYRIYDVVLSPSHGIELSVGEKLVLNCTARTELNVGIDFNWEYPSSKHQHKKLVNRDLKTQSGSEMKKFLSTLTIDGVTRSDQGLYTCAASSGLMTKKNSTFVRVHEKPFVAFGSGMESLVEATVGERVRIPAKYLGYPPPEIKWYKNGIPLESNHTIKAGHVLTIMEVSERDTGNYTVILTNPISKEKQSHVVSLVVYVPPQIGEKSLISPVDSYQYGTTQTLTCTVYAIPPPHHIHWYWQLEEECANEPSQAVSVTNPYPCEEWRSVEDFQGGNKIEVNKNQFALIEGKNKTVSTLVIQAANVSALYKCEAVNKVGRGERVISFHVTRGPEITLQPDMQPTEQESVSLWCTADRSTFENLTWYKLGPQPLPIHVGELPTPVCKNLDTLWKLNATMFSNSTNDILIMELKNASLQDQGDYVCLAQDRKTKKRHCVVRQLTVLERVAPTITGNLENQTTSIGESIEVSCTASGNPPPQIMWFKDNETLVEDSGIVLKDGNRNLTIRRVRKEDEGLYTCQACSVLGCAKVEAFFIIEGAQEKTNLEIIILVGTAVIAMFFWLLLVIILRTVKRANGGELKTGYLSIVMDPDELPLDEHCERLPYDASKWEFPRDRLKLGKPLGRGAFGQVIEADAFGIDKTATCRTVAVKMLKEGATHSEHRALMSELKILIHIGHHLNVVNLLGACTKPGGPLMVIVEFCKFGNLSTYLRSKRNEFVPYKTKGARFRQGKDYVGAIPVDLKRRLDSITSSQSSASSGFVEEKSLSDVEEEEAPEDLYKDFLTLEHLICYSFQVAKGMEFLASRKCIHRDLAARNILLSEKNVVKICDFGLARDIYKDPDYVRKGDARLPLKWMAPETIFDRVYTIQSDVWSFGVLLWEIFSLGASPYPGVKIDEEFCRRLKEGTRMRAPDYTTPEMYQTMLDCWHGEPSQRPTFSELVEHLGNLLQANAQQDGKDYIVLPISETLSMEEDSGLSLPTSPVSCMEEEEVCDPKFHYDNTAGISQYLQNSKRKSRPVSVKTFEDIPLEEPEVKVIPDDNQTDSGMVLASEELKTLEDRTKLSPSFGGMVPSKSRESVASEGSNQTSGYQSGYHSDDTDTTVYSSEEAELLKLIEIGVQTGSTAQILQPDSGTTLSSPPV

Row | Molecule | average number of branch points of neurite per RGC (primary mouse RGC [1]) | average axon length per RGC (primary mouse RGC [1]) | average number of neurites per RGC (primary mouse RGC [1]) | percentage of RGC with axons longer than 3× cell body length (primary mouse RGC [1]) | length of extra long axons (primary mouse RGC [1]; some of the overexpressing primary RGC, correlative fluorescence and electron microscopy) [μm] | increased RGC survival upon H2O2 treatment compared to control (primary mouse RGC [2]) [%] | VEGFR2 activation by levels of VEGFR2 phosphorylation (p-VEGFR2) (VEGFR2) | intracellular [Ca2+] (RGC) | genes involved in apoptosis and cell death (bax/bcl2 ratio) and inhibition of axon formation (Tsc1) (primary mouse RGC [3]) | genes involved in axon growth (KLF7), neurogenesis (Microtubule-associated protein 1B) and synaptic vesicle trafficking (vesicle-associated membrane protein 3) (primary mouse RGC [3]) | synaptic vesicle marker synaptophysin in axons and neurites (primary RGC) | RGC survival (primary mouse RGC [4]) [%] | pro-inflammatory markers [5] | synapse formation (primary RGC; RGC)
1 | eVEGF-38: engineered covalently linked dimer of VEGF121 isoform with a 38 amino acid glycine-rich linker connected to a GPI anchor (SEQ ID NO: 1) (protein) MNFLLSWVHWSLALLLYLHHAKWSQAAPMAEGGGQNHHEVVKFMDVYQRSYCHPIETLVDIFQEYPDEIEYIFKPSCVPLMRCGGCCNDEGLECVPTEESNITMQIMRIKPHQGQHIGEMSFLQHNKCECRPKKDRARQEKCDKPRRGGSSGGSSGGSGGGTGGGSGAPMAEGGGQNHHEVVKFMDVYQRSYCHPIETLVDIFQEYPDEIEYIFKPSCVPLMRCGGCCNDEGLECVPTEESNITMQIMRIKPHQGQHIGEMSFLQHNKCECRPKKDRARQEKCDKPRRGNGNGEQKLISEEDLKLAAAGNGGNGNGNGDGNGALCNGAGFATPVTLALVPALLATFWSLL | significantly increase | significantly increases | significantly increases | significantly increases | > 1400 | 10 | can sustain VEGFR2 activation in a cell autonomous fashion | decreased | down-regulation | up-regulation | also express synaptic vesicle marker synaptophysin | 45 | – | –
2 | VEGF189: natural VEGF189 isoform with strong heparin-binding domain, constructed with a myc-tag (SEQ ID NO: 3), tested for comparison (protein, myc tag) MNFLLSWVHWSLALLLYLHHAKWSQAAPMAEGGGQNHHEVVKFMDVYQRSYCHPIETLVDIFQEYPDEIEYIFKPSCVPLMRCGGCCNDEGLECVPTEESNITMQIMRIKPHQGQHIGEMSFLQHNKCECRPKKDRARQEKKSVRGKGKGQKRKRKKSRYKSWSVPCGPCSERRKHLFVQDPQTCKCSCKNTDSRCKARQLELNERTCRCDKPRRKLGNGNGEQKLISEEDLGN | – | significantly increases | significantly increases | significantly increases | – | 18 | can sustain VEGFR2 activation in a cell autonomous fashion | – | – | – | also express synaptic vesicle marker synaptophysin | 50 | increased | promoted synapse formation
3 | eVEGF-53: engineered covalently linked dimer of VEGF121 isoform with a 53 amino acid glycine-rich linker connected to a GPI anchor (SEQ ID NO: 2) (protein) MNFLLSWVHWSLALLLYLHHAKWSQAAPMAEGGGQNHHEVVKFMDVYQRSYCHPIETLVDIFQEYPDEIEYIFKPSCVPLMRCGGCCNDEGLECVPTEESNITMQIMRIKPHQGQHIGEMSFLQHNKCECRPKKDRARQEKCDKPRRGGSSGGSSGGSGGGTGGGSGAPMAEGGGQNHHEVVKFMDVYQRSYCHPIETLVDIFQEYPDEIEYIFKPSCVPLMRCGGCCNDEGLECVPTEESNITMQIMRIKPHQGQHIGEMSFLQHNKCECRPKKDRARQEKCDKPRRGNGNGNGNGNGNGNEQKLISEEDLKLAAAGNGNGNGNGNGNGNGDGNGGALCNGAGFATPVTLALVPALLATFWSLL | significantly increase | significantly increases | significantly increases | significantly increases | – | 15 | can sustain VEGFR2 activation in a cell autonomous fashion | decreased | – | – | also express synaptic vesicle marker synaptophysin | 48 | – | –
